± gives the standard deviation of the averaged measurements.
B1: library; a variant is named by its letters at N, in order (parent)
chain: AATGTTGTTGATGCAACCATAAAGTGATATTTAATAATTATTTATAATCAGCAACTTAACCACAAAACAACCATATATTGATATNTCACAAAACAACCATAANTTGATATTTTTGTGAATCGAGTATTTCAGCAAAACTACTGCAGTAAGAA

Experiments:
[1] = variants of: B1; assay: relative integration efficiency (T-LR orientation) vs wild-type transposon end (log2 (normalized fold change)); transposon end mutated: left end; higher = more efficient transposition; settings: with VchCAST RNA-guided transposition machinery (E. coli BL21(DE3) host, lacZ target)
Procedure: (§1)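 Pooled, barcoded VchCAST (Tn6677) mini-transposon donor libraries; each variable transposon-end sequence sits in a fixed pDonor mini-transposon context (10-bp barcode and cargo not included). Left- or right-end libraries were co-transformed with pEffector (TniQ-Cascade, TnsABC, lacZ crRNA, T7, 0.1 mM IPTG) into E. coli BL21(DE3) and grown 18 h at 37 C. T-LR and T-RL junction amplicons were sequenced; output/input barcode fold change was normalised to the mean of four wild-type barcodes and log2-transformed. Two biological replicates; zero-count/undetected variants carry floor values (-10 / -15), censored here. Barcode uncoupling by PCR recombination adds noise.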

[2] = variants of: B1; assay: relative integration efficiency (T-RL orientation) vs wild-type transposon end (log2 (normalized fold change)); transposon end mutated: left end; higher = more efficient transposition; settings: with VchCAST RNA-guided transposition machinery (E. coli BL21(DE3) host, lacZ target)
Procedure: as §1

Variant | relative integration efficiency (log2) [1] | relative integration efficiency (log2) [2]
CG A36T A37T T38A T39A | 0.111 ± 0.38 | 0.0771 ± 0.077
CG A37C | 0.0561 ± 0.13 | -0.222 ± 0.0095
CG A37C T38G | -0.172 ± 0.0031 | -0.236 ± 0.044
CG A37C T38G T39G A40C | 0.21 ± 0.43 | -0.0337 ± 0.1
CG A37G | 0.434 ± 0.033 | 0.146 ± 0.027
CG A37T | 0.0565 ± 0.29 | -0.0666 ± 0.052
CG A37T T38A | 0.156 ± 0.25 | 0.191 ± 0.1
CG A37T T38A T39A A40T | 0.186 ± 0.28 | 0.137 ± 0.049
CG A40C | -0.351 ± 0.61 | -0.0674 ± 0.033
CG A40C T41G | 0.224 ± 0.022 | -0.0298 ± 0.00035
CG A40C T41G T42G T43G | -0.1 ± 0.062 | 0.139 ± 0.11
CG A40G | 0.0123 ± 0.78 | -0.273 ± 0.0094
CG A40G T42G T43A A44G T45C A46G A47G T48A C49T G51A | -1.07 ± 0.8 | -1.29 ± 0.32
CG A40T | 0.577 ± 0.12 | 0.279 ± 0.021
CG A40T T41A | -0.491 ± 0.97 | -0.0047 ± 0.075
CG A40T T41A T42A T43A | 0.256 ± 0.21 | 0.0403 ± 0.12
CG A44C | -0.0239 ± 0.24 | 0.147 ± 0.068
CG A44C T45G | 0.0152 ± 0.65 | -0.0735 ± 0.14
CG A44C T45G A46C A47C | 0.0873 ± 0.37 | -0.21 ± 0.22
CG A44G | 0.0745 ± 0.29 | 0.155 ± 0.065
CG A44G A46G T48G A50G C52A A53T C55A T56C T57A | -3.63 ± 2.8 | -4.04 ± 1.1
CG A44T | 0.138 ± 0.09 | 0.0943 ± 0.032
CG A44T T45A | 0.734 ± 0.13 | 0.214 ± 0.11
CG A44T T45A A46T A47T | 0.462 ± 0.079 | -0.0681 ± 0.078

Variant | relative integration efficiency (log2) [1] | relative integration efficiency (log2) [2]
CG A46C | -0.118 ± 0.76 | -0.291 ± 0.11
CG A46C A47C | -0.43 ± 0.42 | -0.349 ± 0.19
CG A46C A47C T48G C49A | -2.09 ± 0.25 | -1.44 ± 0.53
CG A46G | -0.0959 ± 0.59 | -0.0807 ± 0.18
CG A46G A47G C49G A50T G51C C52T A53C A54G A58C C60G | -3.701 ± 0.037 | -3.69 ± 1.2
CG A46T | -0.195 ± 0.93 | -0.0773 ± 0.14
CG A46T A47T | 0.446 ± 0.37 | 0.452 ± 0.058
CG A46T A47T T48A C49G | 0.192 ± 0.37 | 0.00752 ± 0.28
CG A46T A47T T48G C49T A50G G51A C52G A53C A54G C55G T56A C61A | -1.93 ± 2 | -1.9 ± 0.78
CG A47C | -0.251 ± 0.89 | -0.0577 ± 0.11
CG A47C T48G | -0.613 ± 0.46 | -0.656 ± 0.35
CG A47C T48G C49A A50C | -1.93 ± 0.6 | -1.5 ± 0.48
CG A47G | -0.05 ± 0.31 | -0.131 ± 0.15
CG A47G T48G C52T A53G C55G T56C T57G A58C C60A A62G A66T A67T | -3.24 ± 2.1 | -2.77 ± 0.78
CG A47T | 0.0475 ± 0.098 | 0.0568 ± 0.074
CG A47T T48A | 0.0225 ± 0.3 | 0.341 ± 0.033
CG A47T T48A C49G A50T | -1.26 ± 1.6 | -0.735 ± 0.52
CG A50C | -0.533 ± 0.31 | -0.119 ± 0.099
CG A50C G51T | -0.407 ± 0.67 | -0.196 ± 0.22
CG A50C G51T C52A A53C | -0.0404 ± 0.5 | -0.0487 ± 0.27
CG A50G | -0.586 ± 0.44 | -0.168 ± 0.005
CG A50T | -0.977 ± 0.48 | -0.161 ± 0.19
CG A50T G51C | -1.59 ± 0.97 | -0.729 ± 0.46
CG A50T G51C C52G A53T | -0.839 ± 1.2 | -0.552 ± 0.39

Variant | relative integration efficiency (log2) [1] | relative integration efficiency (log2) [2]
CG A53C | -0.195 ± 0.56 | -0.278 ± 0.078
CG A53C A54C | 0.297 ± 0.47 | 0.0858 ± 0.13
CG A53C A54C C55A T56G | -0.0934 ± 0.06 | -0.592 ± 0.35
CG A53G | 0.388 ± 0.41 | -0.054 ± 0.011
CG A53T | 0.318 ± 0.24 | 0.0743 ± 0.088
CG A53T A54T | -0.0995 ± 0.047 | -0.0854 ± 0.17
CG A53T A54T C55G T56A | -0.3673 ± 0.0015 | -0.413 ± 0.41
CG A54C | -0.339 ± 0.014 | -0.178 ± 0.022
CG A54C C55A | 0.298 ± 0.28 | -0.0734 ± 0.078
CG A54C C55A T56G T57G | -2.12 ± 1.2 | -1.68 ± 0.8
CG A54G | 0.358 ± 0.56 | 0.00787 ± 0.0088
CG A54T | 0.264 ± 0.087 | 0.224 ± 0.12
CG A54T C55G | 0.202 ± 0.2 | -0.316 ± 0.29
CG A54T C55G T56A T57A | -0.43 ± 0.9 | -0.861 ± 0.54
CG A58C | -0.0754 ± 0.25 | -0.223 ± 0.17
CG A58C A59C | -0.146 ± 0.33 | -0.0826 ± 0.066
CG A58C A59C C60A C61A | 0.829 ± 0.17 | 1.06 ± 0.036
CG A58G | -0.0735 ± 0.46 | -0.101 ± 0.063
CG A58T | -1.76 ± 1.7 | -0.0803 ± 0.089
CG A58T A59T | 0.226 ± 0.49 | -0.00421 ± 0.16
CG A58T A59T C60G C61G | -0.383 ± 0.24 | -0.275 ± 0.27
CG A59C | 0.591 ± 0.26 | 0.072 ± 0.14
CG A59C C60A | -0.233 ± 0.25 | -0.0701 ± 0.0044
CG A59C C60A C61A A62C | 0.009 ± 0.11 | 0.0247 ± 0.0075

Variant | relative integration efficiency (log2) [1] | relative integration efficiency (log2) [2]
CG A59G | 0.164 ± 0.45 | -0.0472 ± 0.057
CG A59T | 0.107 ± 0.13 | 0.0634 ± 0.055
CG A59T C60G | 0.263 ± 0.38 | -0.145 ± 0.073
CG A59T C60G C61G A62T | 0.314 ± 0.15 | 0.00645 ± 0.092
CG A62C | 0.284 ± 0.025 | -0.0795 ± 0.022
CG A62C C63A | -0.193 ± 0.12 | 0.182 ± 0.065
CG A62C C63A A64C A65C | -0.604 ± 0.18 | -0.324 ± 0.044
CG A62G | 0.446 ± 0.39 | 0.318 ± 0.17
CG A62T | 1.22 ± 0.39 | 1.17 ± 0.29
CG A62T C63G | -0.0229 ± 0.67 | 0.275 ± 0.072
CG A62T C63G A64T A65T | 0.238 ± 0.12 | 0.339 ± 0.046
CG A64C | -0.814 ± 1.1 | -0.0626 ± 0.11
CG A64C A65C | -0.354 ± 0.13 | -0.201 ± 0.15
CG A64C A65C A66C A67C | -0.691 ± 0.34 | -0.323 ± 0.18
CG A64G | -0.0623 ± 0.097 | -0.383 ± 0.14
CG A64T | -0.053 ± 0.081 | -0.229 ± 0.11
CG A64T A65T | 0.0165 ± 0.48 | 0.469 ± 0.084
CG A64T A65T A66T A67T | -0.239 ± 0.35 | -0.0292 ± 0.19
CG A65C | 0.328 ± 0.076 | 0.247 ± 0.051
CG A65C A66C | 0.318 ± 0.48 | 0.0588 ± 0.077
CG A65C A66C A67C C68A | -1.01 ± 0.56 | -0.474 ± 0.22
CG A65G | 0.108 ± 0.82 | 0.247 ± 0.21
CG A65T | 0.125 ± 0.051 | 0.0807 ± 0.096
CG A65T A66T | 0.447 ± 0.39 | 0.107 ± 0.0079

Variant | relative integration efficiency (log2) [1] | relative integration efficiency (log2) [2]
CG A65T A66T A67T C68G | -0.641 ± 0.54 | -0.247 ± 0.37
CG A66C | 0.113 ± 0.11 | -0.147 ± 0.047
CG A66C A67C | -0.404 ± 0.29 | -0.0641 ± 0.033
CG A66C A67C C68A A69C | -0.943 ± 0.25 | -0.685 ± 0.37
CG A66C C68A A69C A70C C71A C72T A77T T78G T79A G80T A83C T86A C87A | -2.717 ± 0.015 | -1.87 ± 0.77
CG A66G | -0.258 ± 0.65 | 0.0591 ± 0.047
CG A66T | 0.195 ± 0.21 | 0.0703 ± 0.19
CG A66T A67T | 0.205 ± 0.48 | -0.0368 ± 0.048
CG A66T A67T C68G A69T | -1 ± 0.9 | -0.447 ± 0.35
CG A67C | -0.106 ± 0.44 | -0.129 ± 0.051
CG A67C C68A | -0.165 ± 0.81 | -0.108 ± 0.25
CG A67C C68A A69C A70C | -0.846 ± 1.2 | -0.531 ± 0.42
CG A67G | -0.325 ± 0.26 | -0.269 ± 0.083
CG A67T | -0.588 ± 0.78 | -0.202 ± 0.27
CG A67T C68G | -0.364 ± 0.41 | -0.543 ± 0.47
CG A67T C68G A69T A70T | -1.78 ± 0.54 | -1.55 ± 0.73
CG A69C | -0.309 ± 0.7 | -0.363 ± 0.1
CG A69C A70C | -0.684 ± 0.62 | -0.537 ± 0.29
CG A69C A70C C71A C72A | -1.64 ± 0.34 | -1.88 ± 0.72
CG A69G | -0.41 ± 0.78 | -0.422 ± 0.41
